Measurements from article PMC10833452 (Protein & Cell, 2023).

B1: S2X35 Fab (Fab, V domains shown)
VH: QVQLVQSGAEVKKPGASVKVSCKASGYTFTNYGISWVRQAPGQGLEWMGWISAYKGNTNYAQKLQGRVTMTTDTSTSTAYMELRSLRSDDTAVYYCARPDYQVLGYDFWIGYYGMDVWGQGTTVIVSS
VL: QSVLTQPPSVSGAPGQRVTISCTGSSSNIGAGYDVHWYQQLPGTAPKLLIYGNTNRPSGVPDRFSGSKSGTSASLAITGLQAEDEADYYCQSYDSSLSGSEVVFGGGTKLTVL
B2: VacW-209 Fab (Fab, V domains shown)
VH: QVQLVESGGGVVQPGRSLRLSCAASGFTFSSIAMHWVRQAPGKGLEWVAVMSFDGSIKYYGDSVKGRFTISRDNSKSTLYLQMNSLRAEDTAVYYCARGVQGYYDRSGYYNLDYNYGMDVWGQGTTVTVSS
VL: QSVLTQPPSVSGAPGQRVTISCTGSSSNIGAGYDVHWYQQLPGTAPKLLIYGNSNRPSGVPDRFSGSKSGTSASLAITGLQAEDEADYYCQSYDSSLSGWVFGGGTKLTVL
B3: S2E12 Fab (Fab, V domains shown)
VH: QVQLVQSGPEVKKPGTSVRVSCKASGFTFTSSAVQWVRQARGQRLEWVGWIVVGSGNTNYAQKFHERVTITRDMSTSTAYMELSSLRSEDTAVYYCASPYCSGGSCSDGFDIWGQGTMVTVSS
VL: DIVLTQTPGTLSLSPGERATLSCRASQSVSSSYLAWYQQKPGQAPRLLIYGASSRATGIPDRFSGSGSGTDFTLTISRLEPEDFAVYYCQQYVGLTGWTFGQGTKVEIK
B4: S2X35 recombinant antibody (human IgG constant region) (antibody, V domains shown)
VH: QVQLVQSGAEVKKPGASVKVSCKASGYTFTNYGISWVRQAPGQGLEWMGWISAYKGNTNYAQKLQGRVTMTTDTSTSTAYMELRSLRSDDTAVYYCARPDYQVLGYDFWIGYYGMDVWGQGTTVIVSS
VL: QSVLTQPPSVSGAPGQRVTISCTGSSSNIGAGYDVHWYQQLPGTAPKLLIYGNTNRPSGVPDRFSGSKSGTSASLAITGLQAEDEADYYCQSYDSSLSGSEVVFGGGTKLTVL
B5: 8H12 monoclonal antibody (mouse IgG) (antibody, V domains shown)
VH: EVKLEESGGGLVQPGGSMKLSCAASGFTFSDAWMDWVRQSPEKGLEWVAQIRRKANNHATYYAESVKGRFTISRDDSKSSVYLQMNSLRAEDTGIYYCIRGMTYAMDFWGQGTSVTVSS
VL: DIVMTQFQKFMSTSVGDRVSITCKASQNVRTAVAWYQQKPGQSPKAMIYLASNRHRGVPDRFTGSGCGTDFTLTISNVQCEDLADYFCLQHRNYPLTFGGGTKLEIK
B6: VacW-209 recombinant antibody (human IgG constant region) (antibody, V domains shown)
VH: QVQLVESGGGVVQPGRSLRLSCAASGFTFSSIAMHWVRQAPGKGLEWVAVMSFDGSIKYYGDSVKGRFTISRDNSKSTLYLQMNSLRAEDTAVYYCARGVQGYYDRSGYYNLDYNYGMDVWGQGTTVTVSS
VL: QSVLTQPPSVSGAPGQRVTISCTGSSSNIGAGYDVHWYQQLPGTAPKLLIYGNSNRPSGVPDRFSGSKSGTSASLAITGLQAEDEADYYCQSYDSSLSGWVFGGGTKLTVL
B7: S2E12 recombinant antibody (human IgG constant region) (antibody, V domains shown)
VH: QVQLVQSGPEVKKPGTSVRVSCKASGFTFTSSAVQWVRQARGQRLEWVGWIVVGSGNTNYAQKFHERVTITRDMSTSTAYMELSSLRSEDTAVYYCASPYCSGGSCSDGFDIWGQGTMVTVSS
VL: DIVLTQTPGTLSLSPGERATLSCRASQSVSSSYLAWYQQKPGQAPRLLIYGASSRATGIPDRFSGSGSGTDFTLTISRLEPEDFAVYYCQQYVGLTGWTFGQGTKVEIK

target: T1, SARS-CoV-2 wild-type spike protein ectodomain, prefusion-stabilized trimer (WT-S) (SARS-CoV-2 prototype (MN908947), UniProt P0DTC2, proline substitution at 986 | proline substitution at 987 | GSAS substitution …); test: cryo-EM structure; conditions: both partners purified

**Q.** Does B1 bind?
**A.** Result: binds

**Q.** Does B2 bind?
**A.** Result: binds

**Q.** Does B3 bind?
**A.** Result: binds

target: T1, SARS-CoV-2 wild-type spike protein …; test: SPR; conditions: both partners purified

**Q.** Does B4 bind?
**A.** Result: binds

**Q.** Does B5 bind?
**A.** Result: binds

**Q.** Does B6 bind?
**A.** Result: binds

**Q.** Does B7 bind?
**A.** Result: binds
